From US20090075291A1, “PEPTIDE-BASED REGULATION OF GAP JUNCTIONS” (The Research Foundation of State University of New York, priority 2006, published 2009)

Experiments:
[1] = target: T1, Cx43CT (Rattus norvegicus, UniProt P08050); assay: Surface Plasmon Resonance (SPR) binding of synthetic peptides to immobilised recombinant Cx43CT; conditions: for SPR binding to Cx43CT (in words): Cx43CT bound to carboxymethyl dextran matrix
T1 construct: GST (N, cleaved yes); made in house; host or cells: E. coli BL-21
T1 sequence (P08050 255-382): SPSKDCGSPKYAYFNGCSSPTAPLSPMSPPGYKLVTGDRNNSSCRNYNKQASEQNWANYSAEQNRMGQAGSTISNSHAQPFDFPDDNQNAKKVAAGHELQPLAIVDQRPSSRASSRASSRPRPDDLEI
Description: Recombinant Cx43CT was produced as described in Duffy et al., “pH-Dependent Intramolecular Binding and Structure Involving Cx43 Cytoplasmic Domains,” J. Biol. Chem. 277(39):36706-36714 (2002), which is hereby incorporated by reference in its entirety. Briefly, cDNA derived from rat Cx43 was inserted into pGEX-6P-2 (Amersham) and expressed in E. coli (BL-21). The resultant GST-fusion protein was cleaved from the GST PreScission Protease® (Amersham Biosciences). The recombinant product after cleavage contained the sequence 255-382 of rCx43 preceded by four additional amino acids (GPLG). Protein concentration was measured using the Bio-Rad DC Protein Assay. Protein purity was assessed by SDS-PAGE.
Recombinant Cx43CT was covalently bound to a carboxylmethyl dextran matrix (Salamon et al., “Surface Plasmon Resonance Spectroscopy as a Tool for Investigating the Biochemical and Biophysical Properties of Membrane Protein Systems. II: Applications to Biological Systems,” Biochim. Biophys. Acta 1331(2):131-152 (1997), which is hereby incorporated by reference in its entirety). Specific peptides were presented and, when feasible, dissociation constants (KD) were calculated from the time course of binding and unbinding of the ligand, using a 1:1 (Langmuir) association and dissociation kinetic model (Biacore software package). In both phases (association and dissociation), the first 5-8 seconds of recording were not included in the fit, to avoid artifacts resulting from peptide distribution within the flow cells (Lang et al., “Surface Plasmon Resonance as a Method to Study the Kinetics and Amplitude of Protein-protein Binding,” in PRACTICAL METHODS IN CARDIOVASCULAR RESEARCH 936-947 (Stefan Dhein, Friedrich Wilhelm Mohr & Mario Delmar eds., 2005), which is hereby incorporated by reference in its entirety).
Phage display allows for the rapid screening of thousands of peptides, but the characteristics of binding cannot be properly defined. Furthermore, the peptides are part of a capsid protein, which may affect the ability of the peptide to properly interact with the target protein. Therefore, some of the peptides identified by the phage screening were selected to, using SPR, further characterize their ability to bind Cx43CT. Recombinant Cx43CT was covalently bound to a carboxymethyl dextran matrix and synthetic peptides presented for binding. A total of six 12-mer peptides from the non-biased screening (peptides labeled RXP1 to RXP6 in Table 1) and 5 peptides from the biased screening (labeled RXP-A to RXP-E in Table 3) were tested. […] Peptide RXP4 (SEQ ID NO:15) caused the largest deflection in SPR signal. RXP4 (250 μM) was added at time “zero.” Washout was initiated after two minutes of exposure. […] Higher concentrations of the peptide were tested but an asymptotic maximum response could not be detected. In addition, dissociation rates were too fast to reliably use them to calculate the kinetics of binding.
A different result emerged from the testing of the doublets. […] The transitions were well-fit by exponential functions and the rates of association and dissociation were used as described in Example 4 to estimate the kinetic parameters. A full range of concentrations was tested in three separate occasions and at two different pHs of the solvent (6.5 and 7.4). […] Adhes. 8(4-6):219-223 (2001), which is hereby incorporated by reference in its entirety), and that measured for the binding of Aquaporin-0 to Cx45.6 (Yin et al., “The Development-associated Cleavage of Lens Connexin 45.6 by Caspase-3-like Protease is Regulated by Casein Kinase II-mediated Phosphorylation,” J. Biol. Chem. 276(37):34567-34572 (2001), which is hereby incorporated by reference in its entirety).
The peptides were tested for binding to the carboxyl terminal domain of Cx43 using Surface Plasmon Resonance (“SPR”). […]

[2] = target: T1, Cx43CT; assay: Biased (XXXXRXPXXXX) phage display screening against Cx43CT; format: binding; conditions: for Total Frequency (%): all three runs, 402 inserts sequenced; for Frequency Run 2(%) / Frequency Run 1 (%): binding step at pH 6.5; for Frequency Run 2(%): 119 inserts sequenced; for Frequency Run 1 (%): 120 inserts sequenced; for Frequency Run 3 (%): binding step at pH 7.4, 163 inserts sequenced
Method: A “library” of bacteriophage, displaying ˜[…] of 2.7×10^9 random 12-mer peptides (Ph.D.-12™ Phage display peptide library kit; New England BioLabs Inc.) was utilized. Wells in 24-well plates were coated with 15 μg of recombinant CT and blocked with 5 mg/ml BSA. After removing the unbound viruses by washing with Tris buffered saline containing 0.5% tween-20 (TBS-T), low affinity binders were eluted with a solution of TBS-containing Cx43CT at a concentration of 100 μg/ml. High affinity binders were recovered by overlaying the well with a culture of E. coli, to allow the tightly bound phage to infect the bacteria. This culture was amplified and the virus was precipitated with PEG. The amplified product was used for the subsequent round of panning. All steps were conducted at pH 6.5 unless otherwise indicated.
After three rounds of selection and amplification, the phage recovered from the last round of binding were grown on a lawn of E. coli for plaque purification. Each plaque, representing a single clone, was picked and amplified. The phage were isolated and analyzed by DNA sequencing.
The Ph.D. Peptide Display Cloning System (New England BioLabs Inc.) was used to create a biased phage display library of sequence XXXXRXPXXXX, where X is any amino acid flanking an arginine and a proline with an additional random residue at the center. The randomized peptides were followed by a Gly-Gly-Gly-Ser (SEQ ID NO:2) spacer. The library was cloned into M13 phage. These phage were analyzed for titer and sequence prior to screening for Cx43CT binding as described above.
The RXP motif was not detected in phage that bound to streptavidin. The motif occurred in different positions within the 12-mer peptide, thus preventing proper alignments to determine the frequency of other amino acids at specific positions relative to the RXP. To overcome this limitation and to search for peptides with higher binding affinity (see Example 10), a biased phage display library was generated where the RXP motif was forced to the center of the sequence, flanked at each side by 4 randomized amino acids. Sixty clones containing an insert (out of an estimated 3-4×10^4 total clones in the library) were chosen at random for sequencing prior to exposure of the library to Cx43CT. All inserts coded for an 11-mer peptide with the RXP motif in the appropriate location. In three independent runs, the same library was presented to Cx43CT. The binding step was carried out at pH 6.5 in two of the runs (run 1 and 2) and at pH 7.4 in one additional run (run 3). The total number of phage plaques containing a full coding insert that were recovered after the binding step were 120, 119 and 163 for runs 1, 2 and 3, respectively. […] These inserts may be consequent to incomplete restriction enzyme digestion as well as possible residual activity of the Klenow polymerase used in second strand production. The combination of these two factors would result in blunt ends that subsequently ligated. […] Furthermore, five specific peptides were recovered from all three runs and represented a large fraction of the repeats observed within the same run (see Table 2).

[3] = target: T1, Cx43CT; assay: NMR 15N-HSQC resonance shifts of 15N-Cx43CT in presence of peptide; format: binding; conditions: PBS pH 5.8, peptide to Cx43CT about 2.4 mM to 0.8 mM (3:1)
Method: All NMR data were acquired on a Varian INOVA 600-MHz NMR spectrometer using a cryoprobe (MacUra & Ernst, “Elucidation of Cross Relaxation in Liquids by Two-dimensional NMR Spectroscopy,” Mol. Phys. 41:95-117 (1980), which is hereby incorporated by reference in its entirety); the sample temperature was maintained at 7° C. Gradient-enhanced two-dimensional ^1H-^15N HSQC experiments (Kay et al., “Pure Absorption Gradient Enhanced Heteronuclear Single Quantum Correlation Spectroscopy with Improved Sensitivity,” J. Am. Chem. Soc. 114:10663-10665 (1992), which is hereby incorporated by reference in its entirety) were used to observe all backbone amide resonances in ^15N-labeled Cx43CT. Data were acquired with 1024 complex points in t2 and 128 complex points in t1. Sweep widths were 10,000 Hz in the proton dimension and 2,500 Hz in the nitrogen dimension. The concentration of RXP peptide to Cx43CT was approximately 2.4 mM to 0.8 mM, respectively (3:1 ratio). All NMR data were processed using NMRPipe (Delaglio et al., “NMRPipe: A Multidimensional Spectral Processing System Based on UNIX Pipes,” J. Biomol. NMR 6(3):277-293 (1995), which is hereby incorporated by reference in its entirety) and analyzed using NMRView (Sorgen, “How to Solve a Protein Structure by Nuclear Magnetic Resonance The Connexin43 Carboxyl Terminal Domain,” in PRACTICAL METHODS IN CARDIOVASCULAR RESEARCH 948-958 (Stefan Dhein, Friedrich Wilhelm Mohr & Mario Delmar eds., 2005), which is hereby incorporated by reference in its entirety).
Peptides RXP1, RXP4 and RXP-E were tested for their ability to modify the structure of Cx43CT. The peptides were diluted in PBS (pH 5.8) containing ^15N-Cx43CT, and ^15N-HSQC spectra were acquired. Results for RXP4 and RXP-E are shown in FIGS. 4A (RXP4) and 4B (RXP-E). The specific resonance peaks that correspond to each amino acid in the Cx43CT sequence have been assigned (Sorgen et al., “Sequence-specific Resonance Assignment of the Carboxyl Terminal Domain of Connexin43,” J. Biomol. NMR 23(3):245-246 (2002), which is hereby incorporated by reference in its entirety). […]

“AcRNP-NH2 (Ac-Arg-Asn-Pro-NH2) [Peptide 2502, small RXP peptide]” was tested, and the “Response (SPR amplitude)” value ([1]; peptide concentration 1.0 mM) was 4.6 arbitrary units.

In the case of “AcRNPRNP-NH2 (Ac-RNPRNP-NH2) [Peptide 2501]”, the “Response (SPR amplitude)” value ([1]; peptide concentration 500 μM) is reported as 14.4 arbitrary units and the “Response (SPR amplitude)” value ([1]; peptide concentration 1.0 mM) is reported as 24.8 arbitrary units.

AcRRKP-NH2 (Ac-RRKP-NH2) [Peptide 2504] was tested, and the “Response (SPR amplitude)” value ([1]; peptide concentration 1.0 mM) was 46.5 arbitrary units.

For “AcRRKPRRKP-NH2 (Ac-RRKPRRKP-NH2) [Peptide 2503]”, the “Response (SPR amplitude)” value ([1]; peptide concentration 25 μM) was 27.5 arbitrary units, the “Response (SPR amplitude)” value ([1]; peptide concentration 100 μM) was 80.6 arbitrary units and the “Response (SPR amplitude)” value ([1]; peptide concentration 250 μM) was 147.0 arbitrary units. For the same substance, the “Response (SPR amplitude)” value ([1]; peptide concentration 500 μM) was 214.8 arbitrary units and the “Response (SPR amplitude)” value ([1]; peptide concentration 1.0 mM) was 294.7 arbitrary units.

AcRRNP-NH2 (Ac-RRNP-NH2) [Peptide 2505] was tested, and the “Response (SPR amplitude)” value ([1]; peptide concentration 1.0 mM) was 34.9 arbitrary units.

With “DVPGRDPGYIKGGGSAHARVPFYSHSLNRNRKPSLYQ (RXP-containing peptide) [RXP-A]” the “Total Frequency (%)” value [2] was 40%, the “Frequency Run 2(%)” value [2] was 64.7% and the “Frequency Run 1 (%)” value [2] was 20.8%. For the same substance, the “Frequency Run 3 (%)” value [2] was 36.2%.

With “EIQPRSPLMFSGGGSAHARVPFYSHSAKEARWPRAHR (RXP-containing peptide) [RXP-B]” the “Total Frequency (%)” value [2] was 8.2%, the “Frequency Run 2(%)” value [2] was 2.5% and the “Frequency Run 1 (%)” value [2] was 6.7%. The “Frequency Run 3 (%)” value [2] was 13.5%.

“G H L H L R V P T L K M (GHLHLRVPTLKM; RXP-containing peptide) [RXP1]” was tested, and the “SPR binding to Cx43CT (in words)” value [1] was “detectable, pH-dependent binding”, the “SPR binding to Cx43CT (in words)” value ([1]; listed as RXP-1) was “very weak (almost undetectable) interaction” and the “Shift of Cx43CT resonance peaks (15N-HSQC)” value (“Shift” for short) [3] was “no resonance shifts were observed”.

In the case of “GIAAREPNSHDGGGSAHARVPFYSHSRDLWRKPAKSL (RXP-containing peptide)”, the “Total Frequency (%)” value [2] is reported as 15.2%, the “Frequency Run 2(%)” value [2] is reported as 11.8% and the “Frequency Run 1 (%)” value [2] is reported as 12.5%. The “Frequency Run 3 (%)” value [2] was 19.6%.

“R R P P Y R V P R K L F (RRPPYRVPPKLF) [RXP4]” was tested, and the “SPR binding to Cx43CT (in words)” value [1] was “too weak to allow for proper calculation of kinetic values”, the “SPR binding to Cx43CT (in words)” value ([1]; listed as RXP-4) was “weak intermolecular binding” and the “Shift” value [3] was “strongly affected the resonance peaks of residues R376, D378, and D379”. For the same substance, the “Shift” value ([3]; listed as RXP-4) was “caused a shift in the position of residues 376, 378 and 379, as well as residues 343-346”.

For “WEEPRRPFTMSGGGSAETHARVPFYSHSPMRHRLPGVHL (RXP-containing peptide) [RXP-D]”, the “Total Frequency (%)” value [2] was 6%, the “Frequency Run 2(%)” value [2] was 0.8% and the “Frequency Run 1 (%)” value [2] was 16.7%. For the same substance, the “Frequency Run 3 (%)” value [2] was 1.8%.
